Source: US10000771B2, “Nuclear targeting sequences” (Yeda Research and Development Co. Ltd., priority 2007, dated 2018)

What was measured:
[1] = system: CHO cells; assay: Microscopy of MEK1-GFP constructs (subcellular localization); type: cell-based
Experimental: FIGS. 14A-14R are photomicrographs illustrating that the NTS motif regulates MEK1 shuttling into the nucleus. CHO cells overexpressing WT-GFP-MEK1 (WT), AAA-GFP-MEK1 (AAA-MEK) and EPE-GFP-MEK1 (EPE-MEK) were starved for 16 hr and treated with LMB (5 ng/ml, 1 hr; LMB), LMB (5 ng/ml, 1 hr)+TPA (250 nM, 15 min; LMB+TPA) or left un treated (NT). Subsequently the cells were fixed, stained with DAPI and visualized by a fluorescent microscope.
Immunofluorescence Microscopy. Cells were fixed (30 min in 3% paraformaldehyde in PBS or 10 min with ice-cold methanol), followed by 5-min permeabilization with 0.2% Triton X-100 in PBS (23° C.). The fixed cells were sequentially incubated with the appropriate Abs (45 min) followed by rhodamine-conjugated secondary Abs (45 min) and DAPI. Slides were visualized using a fluorescence microscope (Nikon, Japan) at 400× magnifications.
Other proteins that translocate into the nucleus upon stimulation are the MEKs [H. Jaaro, H. Rubinfeld, T. Hanoch, R. Seger, Proc. Natl. Acad. Sci. USA 94, 3742 (1997)]. […] This TPT sequence was also shown to be phosphorylated upon cellular stimulation [S. Matsuda, Y. Gotoh, E. Nishida, J Biol Chem 268, 3277 (Feb. 15, 1993)], and to be involved in protein-protein interaction that can determine subcellular localization [A. Nantel, K. Mohammad-Ali, J. Sherk, B. I. Posner, D. Y. Thomas, J Biol Chem 273, 10475 (Apr. 24, 1998). […]

[2] = target: T1, Act-GST-ERK2 (Rattus norvegicus, UniProt P63086); assay: In vitro kinase assay with active GST-ERK2; type: biochemical; settings: immunoprecipitated protein as substrate, relative to GFP-ERK2
T1 construct: made in house; host or cells: bacteria co-expressing active MEK1
T1 sequence (P63086 whole entry): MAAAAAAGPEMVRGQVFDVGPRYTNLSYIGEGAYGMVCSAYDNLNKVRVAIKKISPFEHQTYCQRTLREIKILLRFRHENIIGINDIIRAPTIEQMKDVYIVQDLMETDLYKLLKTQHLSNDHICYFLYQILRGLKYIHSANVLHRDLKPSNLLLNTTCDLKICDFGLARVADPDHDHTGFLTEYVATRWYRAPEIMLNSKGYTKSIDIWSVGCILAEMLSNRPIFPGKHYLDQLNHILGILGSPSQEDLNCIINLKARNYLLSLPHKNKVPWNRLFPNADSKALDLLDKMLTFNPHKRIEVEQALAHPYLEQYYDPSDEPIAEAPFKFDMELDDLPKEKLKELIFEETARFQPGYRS
Experimental: (§1) FIGS. 4A-4I are autoradiographs characterizing SPS phosphorylation using an Ab to the phosphorylated SPS domain. FIG. 4A illustrates an elevation of pSPS detection upon stimulation. COS cells were transfected with WT-GFP-ERK2. Twenty-four hr after transfection, the cells were serum-starved for 16 hr and subsequently treated with the general stimulator VOOH (V, 100 μM Na3VO4 and 200 μM H2O2, 15 min), TPA (T, 250 nM, 15 min), EGF (E, 50 ng/ml for 15 min), or left untreated (NT). The GFP-ERK2 was immunoprecipitated with anti GFP Ab, extensively washed, and the IP was then subjected to Western blotting with anti phospho SPS-ERK (αphoSPS-ERK) and anti general ERK (αgen-ERK) Abs. FIG. 4B is a time course of SPS phosphorylation. […] SPS phosphorylation was detected using the anti pSPS Abs, and this was compared to the amount of genral ERKs detected by αgERK. […] SPS-phosphorylation was detected using αpSPS and αgERK Abs. […] The phosphorylation (^32P-ERK2) of ERK and its mutants was detected by autoradiography. […]
Some protein kinases downstream of MEKs that may be involved in the SPS phosphorylation are ERKs themselves (autophosphorylation) as their consensus phosphorylation site includes Ser/Thr followed by a Pro (Yoon and Seger, 2006, Growth Factors, 24, 21-44). […] As expected, ^32P incorporation to GFP-ERK2 was detected mainly when this protein was incubated with Act-ERK2. […]

[3] = system: SPS domain; assay: SPS phosphorylation detected by anti pSPS Ab Western blot; type: cell-based; settings: COS7 cells, stimulated with VOOH, TPA, EGF or TGFβ, immunoprecipitation and Western blot
Experimental: as §1, with “phosphorylation. COS7 cells overexpressing WT-GFP-ERK2 were serum starved followed by EGF stimulation for the indicated time points. The lysates were then subjected to Western blot analysis as in FIG. 4A.” for “phosphorylation.”
FIG. 9B is an autoradiograph illustrating that stimulation elevates pSPS phosphorylation of 2GFP-SPS construct. […] The total amount of immunoprecipitated 2GFP-SPS was detected with αGFP Ab. […]

Molecule	nuclear accumulation after TPA stimulation ([1]; LMB 5 ng/ml + TPA 250 nM, 15 min)	nuclear translocation after leptomycin B ([1]; LMB 5 ng/ml, 1 hr)	reduction of phosphorylation (32P incorporation) by Act-ERK2 [2] [%]	SPS phosphorylation upon stimulation (anti pSPS Ab recognition) [3]
AAA-MEK1: GFP-MEK1 with residues 386-8 (TPT) replaced with Ala (protein, UniProt Q02750 1-393, looked up, variant T386A P387A T388A, GFP fusion, GFP-MEK1 with residues 386-8 (TPT) replaced with Ala) Dual specificity …: MPKKKPTPIQLNPAPDGSAVNGTSSAETNLEALQKKLEELELDEQQRKRLEAFLTQKQKVGELKDDDFEKISELGAGNGGVVFKVSHKPSGLVMARKLIHLEIKPAIRNQIIRELQVLHECNSPYIVGFYGAFYSDGEISICMEHMDGGSLDQVLKKAGRIPEQILGKVSIAVIKGLTYLREKHKIMHRDVKPSNILVNSRGEIKLCDFGVSGQLIDSMANSFVGTRSYMSPERLQGTHYSVQSDIWSMGLSLVEMAVGRYPIPPPDAKELELMFGCQVEGDAAETPPRPRTPGRPLSSYGMDSRPPMAIFELLDYIVNEPPPKLPSGVFSLEFQDFVNKCLIKNPAERADLKQLMVHAFIKRSDAEEVDFAGWLCSTIGLNQPSAAAHAAGV	localized in the cytoplasm	abrogated	–	–
TEY-AAA: TEY mutated ERK2 that does not contain phosphates in this site (protein, left off: large carriers) MAAAAAAGPEMVRGQVFDVGPRYTNLSYIGEGAYGMVCSAYDNLNKVRVAIKKISPFEHQTYCQRTLREIKILLRFRHENIIGINDIIRAPTIEQMKDVYIVQDLMETDLYKLLKTQHLSNDHICYFLYQILRGLKYIHSANVLHRDLKPSNLLLNTTCDLKICDFGLARVADPDHDHTGFLAAAVATRWYRAPEIMLNSKGYTKSIDIWSVGCILAEMLSNRPIFPGKHYLDQLNHILGILGSPSQEDLNCIINLKARNYLLSLPHKNKVPWNRLFPNADSKALDLLDKMLTFNPHKRIEVEQALAHPYLEQYYDPSDEPIAEAPFKFDMELDDLPKEKLKELIFEETARFQPGYRS	–	–	~25	can still be recognize by the anti phosphoSPS Ab upon stimulation
